# Results reported in the DeepSol protein solubility set.
# Test: soluble on expression in E. coli; label from the status in PepcDB or PDB records
row,Sequence,soluble on expression in E. coli
1,MGSDKIHHHHHHMLNPLWLKTFITLVETGHFTQTASKLFMTQPGVSQHLNKLEQACGHQLLIRSRSGIELTEAGERLYQYALSQARAEAALLDSLDEDNPFSGSCRLACSGSLAQLLYPKLLALQAAHPGLKVHMEAAPNARIINEVQQGDKDLGIITAPPPRGLFSDTDIGTQALCLVLPASSEATTDDASLPSINELKVLGLISHPDAAHYLSLFFAHSGSPGYQNAFAEDFPISSYINQLGQILLPVSMGLGFTVLPLSVVEQFSERDKLRVCVGLERVFEPLYLIHKRQRQLPARFDTIRSLIQSVLTSTTDSPQ,not soluble
2,MGSDKIHHHHHHMLPRQPRSRTSADCSGFPARYGGWLALLLSRLSRSAGKEPGCERGARPRTAMRGSHGSISCIATGCLLSSSAMIWTISDLHLSFARPKPMDIFGPGWKDHPERIAQAWRERVAATDWVLIAGDISWAMKLPDALLDLQWIDALPGTKVLIRGNHDYWCPRRVNSIRRHLPPSLRLIGADALDIGEAVVCGTRGWITPETPGFTETDLPIYQRELGLLERALAAGQALAVNKPLIVMIHFPPFVNRQPTEFSRRIAASGAAACIYGHLHRRYDWDNAVQGRVDGVYYQLTACDYLGFGPVAVRGLNGWSGG,not soluble
3,MGSDKIHHHHHHMLRGINRQIIFEDDEDYQNFMGTIKETQEKSGYEVYAYCLMSNHVHLLLKEVTEDLGIAFRRIGAIYVYWYNWKYSRRGHLFQARYKSEAVETDSYFLTVLRYIHQNPYKAGIVKNIADYPWSSYGEYVGEPRICDVEFGLNMFSTNRTNAVKLFEEFNLAENQDQCLDYNQDVRLNDTEASNFIRSISDVQSPTEIQGFEKDKRNEVIKKCKSKGLSIRQIERLTGVSFGVIRTI,not soluble
4,MGSDKIHHHHHHMLRLFQRKSAVLPPVAAVTETALSKGLLQPKPAAELLATPRRQKLLEHIWQRTSLSRKQFHTLYRVPLERYADLVQQFPASESHHHAYLGGMLDHGLEIVAFALKLRQSHLLPAGASPEDQAAQAEAWTAAVAYAALLHDIGKIAVDLHVELQGGRIWHPWHGPLSQPYRFRHREGREYRLHGAATGLLYSRILDSAALDWLSGYPALWSQLLYVLSGQYEHADMLGELVVQADRASVAQELGGDPAKVMAAPKHALQRKLLEGLRYLLKEQLKLNQPEASDGWLTEDALWLVSKTVSDKLRAHLLSQGIDGIPASNSAVFNVLQEHSMLQLTCPHRPYQ,not soluble
5,MGSDKIHHHHHHMLRSMYSGISGLKNFQTKLDVVGNNIANVNTFGYKKGRVTFKDLVSQSVGSASGNGGGVGGANPKQVGLGASMATVDSVSNQGALQNTGRTLDVAISGEGFFQIQTADGIRYARSGNFYTDLDGNLVTGDGNYVIGSDNAGPLGQPTIPLGGGYKTINIPANAQNLSIGKDGLVTYVDPAGTLQQAGYISLANFPNPGGLEKSGSNMYSISQNSGQPTSATPSTNGLGQLTSGTLEMSNVDLSEEFTEMIIAQRGFQANTRIITTSDQILEELVNLKR,not soluble
6,MGSDKIHHHHHHMLRVKNLRLKYPNGDRKIFDNLNLEIKNKEKVLLLGPSGSGKSTLLNVLSGIVPNLIELPMKYDELNIDHDSGVIFQDPDNQFCMPKVYEELAFVLENRNIPRSEMDQEIENALKSVDLNVTHKTYVNNLSGGMKQKLAIVETILQKSKTLFLDEPTAMLDVKATEDLWKKLINLWKDQTVLIVEHKVEHIWQHVDRVLLLNYDGEIVADDTPEQILDHYEALLTEYGVWHPRAWHSAPRPIPLPNQTKNLLFHFDDGQIIRGKKTLFSSKELKLYSGEWLTITGKNGAGKTSLLEAMLQLIKYEGDMFYRDQLLSKIKQAAKHMYLVYQNPELQFITNSVYDEVYIHYNHLDPKHANDETMDLLKLLHLDQVKDHHPFEISTGQKRRLSVATALSSKAEIILLDEPTFGLDSHNTFQLIKLFQERVNQGQTIIMVTHDPEIIKRYPTRRLRVEDGCLKEMEGEHIV,not soluble
7,MGSDKIHHHHHHMLSKICMKILTVLDSYPPDLNGGAYFTHRLAKFLQAKGHEVLVICPSRSLKQGYTSYEGVNLYGVRSWPALGYKNFRVCWPFFIKKGILKAITDFNPDVVHLQGKFFLGGICYRACRKKGIPLMATNHFMPENFFHYTHLPKYFEKWFHRTTWNIVIDMLNHVKIVTTPTHTAANLLKEVHIQKEIHVVSCGVDLQKFQPKQNANLIRQRYKIPDKPILLYAGRLDKEKNLSIAIKAFYKARQSIDAHFVLTGRGAELQRLKKLVQTLNLTEHVTFTGYLSDAEYPLVYSLANCFVNPGTAELQSIVALEAIASGLPLLAAKAMALPELVKEGVNGYLFDPNDVETLSCYMVKILSDRTFSEQMGRESRKLSQEHDIKRTIEQYETLYQSMVS,not soluble
8,MGSDKIHHHHHHMLSLRHSCPRRALKVPNPFVEEAGPQPPKVLKAPVEIQANLRLLQDSRDSLLITFADRNQRFQSFLVDIDRDRGMVALDELIPNTGERFLQNGEAFRVEAFHEGVRIAWECERPVQFGEHDGVPCYWAALPAEVLYHQRRNAYRASIKQSQPIAAEIAGEKLRAPLSGQLLDISATGAKLRFAGNVAERLHPGEIYEDFSAQLPQGAISSAIELRHVRFDEKLDATFAGVRFSEMSGLAQRQVDRFVYQLQREARRFEKDELF,not soluble
9,MGSDKIHHHHHHMLSRFARQLALPVFNGVLHPTRATSSIAHTIKVAHKIDETREKALLGGGKKRVDAQHARGKLTARERIDLLLDRNTFREYDMFAEHTCNDFGMQKEKYPGDSVVTGRGEINGRTVFVFSQDFTVFGGSLSSIHAKKIVKIMREAMLVGAPVIGLNDSGGARIQEGVESLAGYADIFQENVMASGVVPQISMIMGPCAGGAVYSPALTDFTFMVRDTSYLFITGPDVVKAVTNEEVTQEELGGAKTHTVTSGVAHGAFDNDVDALMSLRELFNYLPLSNTDAAPIRAAEDPWDRAVPSLDTVVPLESTAAYNMKDVVHALVDEGDFFEIMPDYAKNLVIGFARMNGRTVGIVGNNPKFAAGCLDINSSVKGARFVRFCDAFNIPIITLVDVPGFLPGTAQEYGGIIRHGAKLLYAFAEATVPKITIITRKAFGGAYDVMSSKHLRGDINYAWPTAEVAVMGAKGAVSILFRNDKEHAVQHEEEYTELFSNPFPAAVRGFVDDIIIPSETRKKVCEDLNMLESKKLKNPWKKHGNIPL,not soluble
10,MGSDKIHHHHHHMLSTAKERQLKIVNRLKVEQFMRIIDLVELVNYSEATVKRDLVELEKEGLVRRTRGGAMIIDNKKIDLPYLMKMNERSNETSKIRIADIAKSLIRDDMVIFLDSSSTSLHLIDVLSKFDGLQIITNGVMTASMLSEFTNARVSILGGSILTKRYTVNGAKAYNDALTYNADIAFVSCRGIDYDKGATETHEGEALIKQAFRRQSSSLVLLVTEEKVGHKFMHQSLACHDIDYLITDFKLDSDVEEQFKTHQITCLY,not soluble
11,MGSDKIHHHHHHMLTHYRDYESFKQVAIPLLERRPDVHQLPLGILERGDVPILMAIAEEGDRTIVVLQTIEEQAILAGDVFTYEGIRKLSRILNCPGYVGEQAIIEPLLASHSPFQIKMDQGIYTLTTVIPPVTLDYEFRLIEERFAPQAVAFGWSFIQETGALPATERSRLKNEQTIRKHIEAETLFGLFDGEQLLAMASSSRPTASGVTISYVFTPPKWRKQGIASYLVACLSEHLLQQYPMVSLYTDWSNKTSNKIYQAVGFELAGRSMQITKRPKYQ,not soluble
12,MGSDKIHHHHHHMLTVSDVSLRFSDRKLFDEVNINFTAGNTYGLIGANGAGKSTFLKILAGDIEPTTGHIALGPDERLSVLRQNHFDYEDERVIDVVIMGNETLYSIMKEKDAIYMKEDFSDEDGVRAAELEGEFAELGGWEAESEASQLLQNLNISEELHYQNMSELANGDKVKVLLAKALFGKPDVLLLDEPTNGLDIQSITWLEDFLIDFENTVIVVSHDRHFLNKVCTHMADLDFGKIKLFVGNYDFWKESSELAARLQADRNAKAEEKIKQLQEFVARFSANASKSKQATSRKKMLDKIELEEIVPSSRKYPFVNFKAEREMGNDLLTVENLSVTIDGEKILDNISFILRPGDKTALIGQNDIQTTALIRALMGDIEYEGTIKWGVTTSRSYLPKDNSRDFASGESILEWLRQFASKEEDDNTFLRGFLGRMLFSGDEVNKSVNVLSGGEKVRVMLSKLMLLKSNVLVLDDPTNHLDLESISSLNDGLKDFKESIIFASHDHEFIQTLANHIIVLSKNGVIDRIDETYDEFLENTEVQAKVAQLWK,not soluble
